These binders were tested against Cft1;Pfs2;Yth1;Fip1 (Saccharomyces cerevisiae;Saccharomyces …, UniProt Q06632;P42841;Q06102;P45976 1-1357;1-465;1-208;1-327, |||) (assay: EMSA; CPFpol (no Pap1); EMSA: 50 nM RNA, 0.25-4.0 uM protein, protein diluted in 10 mM HEPES pH 7.9, 150 mM NaCl, 0.5 mM Mg(OAc)2, plus 1x loading dye (orange G, glycerol, EDTA); 30 min on ice; native 6% acrylamide/TBE PAGE). Conditions: protein: recombinant;recombinant;recombinant;recombinant; tags: ;3C-SII;3C-8H; untagged in CPFpol+Cft2;; copies: 1;2;1;1; label: 5'-FAM.
Chain of Cft1;Pfs2;Yth1;Fip1 (Q06632 whole entry, chain 1 of 4): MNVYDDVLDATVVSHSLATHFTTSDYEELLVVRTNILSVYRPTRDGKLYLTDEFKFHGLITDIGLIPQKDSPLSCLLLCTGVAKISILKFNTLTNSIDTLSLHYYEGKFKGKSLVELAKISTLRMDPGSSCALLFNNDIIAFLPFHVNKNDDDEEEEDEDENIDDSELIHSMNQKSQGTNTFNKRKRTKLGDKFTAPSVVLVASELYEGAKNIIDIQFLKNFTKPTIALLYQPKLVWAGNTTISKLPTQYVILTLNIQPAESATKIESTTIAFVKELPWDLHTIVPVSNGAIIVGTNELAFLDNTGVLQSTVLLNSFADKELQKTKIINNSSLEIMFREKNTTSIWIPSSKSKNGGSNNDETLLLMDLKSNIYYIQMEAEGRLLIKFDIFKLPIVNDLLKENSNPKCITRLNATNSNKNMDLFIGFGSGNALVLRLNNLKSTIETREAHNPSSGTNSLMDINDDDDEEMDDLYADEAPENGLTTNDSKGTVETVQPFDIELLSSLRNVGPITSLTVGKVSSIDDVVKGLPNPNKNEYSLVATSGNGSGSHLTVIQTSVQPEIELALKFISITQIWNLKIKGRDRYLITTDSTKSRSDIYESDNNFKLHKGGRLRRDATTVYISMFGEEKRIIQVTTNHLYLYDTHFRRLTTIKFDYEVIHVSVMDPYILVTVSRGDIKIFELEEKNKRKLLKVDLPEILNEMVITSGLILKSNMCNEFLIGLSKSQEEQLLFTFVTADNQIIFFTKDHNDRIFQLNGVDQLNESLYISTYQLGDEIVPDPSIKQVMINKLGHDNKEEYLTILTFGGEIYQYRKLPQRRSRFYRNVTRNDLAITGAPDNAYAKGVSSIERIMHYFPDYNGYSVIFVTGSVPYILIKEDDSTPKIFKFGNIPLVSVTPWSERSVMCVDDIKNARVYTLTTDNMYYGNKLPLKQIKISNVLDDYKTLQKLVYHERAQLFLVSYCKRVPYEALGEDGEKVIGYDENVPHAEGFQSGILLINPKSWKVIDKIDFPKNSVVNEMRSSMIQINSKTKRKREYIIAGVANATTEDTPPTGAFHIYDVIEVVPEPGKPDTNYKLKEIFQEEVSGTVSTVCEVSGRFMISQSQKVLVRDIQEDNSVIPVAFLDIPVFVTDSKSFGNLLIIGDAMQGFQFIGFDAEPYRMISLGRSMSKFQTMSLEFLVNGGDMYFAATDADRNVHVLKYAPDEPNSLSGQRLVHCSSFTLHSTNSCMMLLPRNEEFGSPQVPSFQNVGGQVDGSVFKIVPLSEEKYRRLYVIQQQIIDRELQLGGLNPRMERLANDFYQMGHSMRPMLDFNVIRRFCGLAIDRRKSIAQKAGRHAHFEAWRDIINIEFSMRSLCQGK
Chain of Cft1;Pfs2;Yth1;Fip1 (P42841 whole entry, chain 2 of 4): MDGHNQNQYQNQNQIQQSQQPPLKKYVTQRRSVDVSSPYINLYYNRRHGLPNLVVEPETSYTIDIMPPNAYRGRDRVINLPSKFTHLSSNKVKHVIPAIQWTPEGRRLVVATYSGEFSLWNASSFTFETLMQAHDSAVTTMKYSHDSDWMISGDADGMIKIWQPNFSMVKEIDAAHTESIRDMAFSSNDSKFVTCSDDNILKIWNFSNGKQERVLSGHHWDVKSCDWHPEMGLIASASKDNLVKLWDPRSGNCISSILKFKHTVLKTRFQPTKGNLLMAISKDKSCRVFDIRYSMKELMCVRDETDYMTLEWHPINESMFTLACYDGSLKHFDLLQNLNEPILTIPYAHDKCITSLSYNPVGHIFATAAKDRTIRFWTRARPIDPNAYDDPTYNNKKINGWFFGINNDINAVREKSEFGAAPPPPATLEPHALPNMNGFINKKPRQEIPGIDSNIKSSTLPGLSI
Chain of Cft1;Pfs2;Yth1;Fip1 (Q06102 whole entry, chain 3 of 4): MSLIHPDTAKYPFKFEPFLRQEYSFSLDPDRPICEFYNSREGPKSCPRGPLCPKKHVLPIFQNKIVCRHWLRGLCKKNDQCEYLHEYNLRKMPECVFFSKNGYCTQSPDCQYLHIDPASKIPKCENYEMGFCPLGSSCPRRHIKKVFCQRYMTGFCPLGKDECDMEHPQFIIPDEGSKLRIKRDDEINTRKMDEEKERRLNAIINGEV
Chain of Cft1;Pfs2;Yth1;Fip1 (P45976 whole entry, chain 4 of 4): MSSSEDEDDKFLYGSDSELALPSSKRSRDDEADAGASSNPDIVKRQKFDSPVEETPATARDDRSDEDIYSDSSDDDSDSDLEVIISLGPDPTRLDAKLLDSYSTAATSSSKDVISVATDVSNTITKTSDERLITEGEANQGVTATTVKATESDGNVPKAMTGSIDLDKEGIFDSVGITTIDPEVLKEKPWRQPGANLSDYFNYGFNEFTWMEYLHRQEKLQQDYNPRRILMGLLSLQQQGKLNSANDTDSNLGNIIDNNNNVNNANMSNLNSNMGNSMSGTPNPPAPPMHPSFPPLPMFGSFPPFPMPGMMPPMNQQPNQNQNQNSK

Binder	binding result
AAGAACGUUAUUUAUAUUUCAAAUUUUUCUUUUUU (ssRNA) [CYC1d EMSA probe]	binds
UUUUUUUUUUUUUUU (ssRNA) [U15]	no binding
AAAAAAAAAAAAAAA (ssRNA) [A15]	binds
CCCCCCCCCCCCCCC (ssRNA) [C15]	no binding
GGGGGGGGGGGGGGG (ssRNA) [G15]	binds

Source: publication PMC6436931, “Activation of the Endonuclease that Defines mRNA 3′ Ends Requires Incorporation into an 8-Subunit Core Cleavage and Polyadenylation Factor Complex” (Molecular Cell, 2019)
